Assay results reported in the supplement of paper PMC9170038.

Tested on: MS2 coat protein
Test: apparent KD of MS2 coat protein; designed switch direction (-1 OFF switch, 1 ON switch): 1; higher = weaker reporter binding
In short: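 The apparent KD reported per design is the median over clusters of curve fits to normalised cluster fluorescence. The RNA switches were transcribed on Illumina chips by stalled E. coli RNA polymerase. SNAP-549-labelled MS2 coat protein was titrated from 0.7 or 1.5 nM, doubling up to 3 µM, in Tris-HCl pH 7.5 buffer containing KCl, MgCl2, BSA, DTT, tRNA and Tween-20, with no input, 200 uM small-molecule ligand, or an oligonucleotide input.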

[1] = input ligand: microRNA oligo, concentration not stated
[2] = Eterna round: R95, input ligand: FMN 200 uM
[3] = Eterna round: R95, input ligand: microRNA oligo, concentration not stated
[4] = Eterna round: R95, input ligand: none

| Sequence | apparent KD of MS2 coat protein (input ligand: FMN 200 uM) [nM] | apparent KD of MS2 coat protein [1] [nM] | apparent KD of MS2 coat protein (input ligand: none) [nM] | apparent KD of MS2 coat protein [2] [nM] | apparent KD of MS2 coat protein [3] [nM] | apparent KD of MS2 coat protein [4] [nM] |
| --- | --- | --- | --- | --- | --- | --- |
| ACAUGAGACAUAGGAUAUGUUGUACCUACAUGUGACAUGAGGAUCACCCAUGUGGUAAGUAUGAGACAGAAGGAUGAGAUAUGU [Equivalence 30 - Jieux - Same State NG 2] (Eterna round: R96, puzzle: Same State NG 2) | 27.5 | 43.4 | 73 | – | – | – |
| GAGGGACAGACCAACAUGAGGAUCACCCAUGUCCUCGCUGGUCAGGAUAUCCCGCCAACAGGCGAGGAGAAGGGACGGUGAACC (Eterna round: R96, puzzle: Same State NG 3) | 1110 | 425 | 724 | – | – | – |
| GCCAUCGUAUGAGGAUAUGGCACCGUUUCGGUGCCAGAAGGCAUGUCAAUUGACAUGAGGAUCACCCAUGUAUUUUCGAUGGCA [JL Fiskers NG1ss - 33 mod 11] (Eterna round: R96, puzzle: Same State NG 1) | 74.6 | 385 | 779 | – | – | – |
| AACUUACUAUCUCAGGAUAUCAUGUCAAAGACAUGAGGAUCACCCAUGUACCAGGAAACUGGUUAUGAGAAGGGAGAUAGUAAGA [Mat - Same State 2 - Mod - D49] (puzzle: Same State 2) | – | – | – | 167 | 128 | 611 |
| GAGCUCGUGUGAGGAUAUGCCGCCGUUUCGGCUGCAGAAGGUGCUACGUUACAUGAGGAUCACCCAUGUCUCUGUUGUUUCGUG [salish99_SSNG1_r04_958] (Eterna round: R96, puzzle: Same State NG 1) | 23.5 | 20.4 | 21.9 | – | – | – |
| CUCGUAUCGGGAGGAUAUGGUGCCUUGUUGGUGCUAGAAGGUCCAACAUGAGGAUCACCCAUGUGCGAGUGGUUGAGAGACCUC [SS NG10LRO14] (Eterna round: R96, puzzle: Same State NG 1) | 708 | 506 | 1000 | – | – | – |
| GGUAUACAUGAGGAUCACCCAUGUCGUAUGACAUGAGGAUAUGUACAGACUUCGGUCUGUACAGAAGGCGUGUGUC [SS1 - 1011 Omei Mod 6] (puzzle: Same State 1) | – | – | – | – | 307 | – |
| UAGAGAGGAAGCGAGGAUAUCGUGUUAGGUACAUGAGGAUCACCCAUGUUUUAAGUAGAGAUAGGCGAGAAGGCGCAGGAGAAGA [JR_SS2_Sub089] (puzzle: Same State 2) | – | – | – | 38 | 20.1 | 28 |
| UUAUACUCGAGAGGAUAUGCAGAGGAUCACCCUGCAGAAGGCUCGUUAGAGAGGAUAUGCAGAGGAUCACCCUGCAGAAGGCUC [pwkr ssNG DX.24] (Eterna round: R96, puzzle: Same State NG 1) | 45.7 | 16.1 | 37.4 | – | – | – |
| AGCUAUUACGAAGGAUAUAGUGACAUGAGGAUCACCCAUGUGUACAUGAGUAAUUGUGAUCACGUCUAGAAGGUUGUACUAACA [SameState NG2 #35] (Eterna round: R96, puzzle: Same State NG 2) | 181 | 165 | 180 | – | – | – |
| GGUAUGGACACAGGAUAUGCUAUCCUUUGGGUAGCAGAAGGGUGAACAUGAGGAUCACCCAUGUACGUGCCAGGGCGUGAGCCC [JL SSNG1 1.78] (Eterna round: R96, puzzle: Same State NG 1) | 913 | 278 | 1620 | – | – | – |
| AACAAUCUAUCUGAGGAUAUCAUGAAAUAAACAUGAGGAUCACCCAUGUGCAGGAAAACUGCAUAUGAGAAGGCAUAUAGAUUGA [salish99_ss2_r3_052] (puzzle: Same State 2) | – | – | – | 63.7 | 465 | 1560 |
| GUGGUCAGACAUGAGGAUCACCCAUGUGGAAUAAAUAAGGAACAGGAUAUCUAAUAUAGGAUAUAAGAGAAGGGUUGGUUGGUG (Eterna round: R96, puzzle: Same State NG 3) | – | 61.9 | – | – | – | – |
| ACAUGAGAGCGAGGAUAUAUUGUACCUACAUGUGACAUGAGGAUCACCCAUGUGGUAAGUAUGACAUAGAAGGCGCAGAUAUGU [Equivalance 91 - Jieux - Same State NG 2] (Eterna round: R96, puzzle: Same State NG 2) | 21.4 | 27.8 | 33.7 | – | – | – |
| ACAGCGAAACAUGAGGAUCACCCAUGUAAAGAAUAGGUGAAUUGUUGCUCGUCUUGAAGAGAAGAGAAGAAGGAGAG [Victory 1] (puzzle: Sensor for hsa-mir-208a version 2) | – | – | – | 192 | 101 | 180 |
| AACAAUCUAUCUGAGGAUAUCAUGAAAUAAACAUGAGGAUCACCCAUGUGCAGGAAAAUUGCAUAUGAGAAGGCAGAUAGAUUGA [salish99_ss2_r3_044] (puzzle: Same State 2) | – | – | – | 37.9 | 771 | 669 |

| Sequence | apparent KD of MS2 coat protein (input ligand: FMN 200 uM) [nM] | apparent KD of MS2 coat protein [1] [nM] | apparent KD of MS2 coat protein (input ligand: none) [nM] | apparent KD of MS2 coat protein [2] [nM] | apparent KD of MS2 coat protein [3] [nM] | apparent KD of MS2 coat protein [4] [nM] |
| --- | --- | --- | --- | --- | --- | --- |
| AGUCCAGCCUGAGCUGGACAAAAGCGUGUACAUGAGGAUCACCCAUGUCAUGUACAAGCUUUUUGCUCGUCUUAAAA [Zipper 46 - 7] (puzzle: Sensor for hsa-mir-208a) | – | – | – | 63.5 | 19.9 | 69.8 |
| AGCUAAAACGAAGGAUAUACUGACAUGAGGAUCACCCAUGUCUACAUGAUUUAUUGUGAUCACAUGUAGAAGGUCGUACUAACA [SameState NG2 #22] (Eterna round: R96, puzzle: Same State NG 2) | – | 58.5 | – | – | – | – |
| AGCUAGUACCGAGGAUAUACAUACAUGAGGAUCACCCAUGUAUACAUGAAUUAAUGAGACUACAUGUAGAAGGCGGUACUAGCA [JL SSNG2 1.22] (Eterna round: R96, puzzle: Same State NG 2) | – | 54 | – | – | – | – |
| AGCUAUUACGAAGGAUAUUCUGACAUGAGGAUCACCCAUGUCUUCAUGAUUUAUUGUGAUCACGUGGAGAAGGUUGUACUAACA [SameState NG2 #27] (Eterna round: R96, puzzle: Same State NG 2) | 90.4 | 77.9 | 91.4 | – | – | – |
| UUGCGGGCUUGAGGAUAUUGAGUACAUAUGUUUAACAUGAGGAUCACCCAUGUGGGUUGCGGUAUCGAGAAGGUGGCUUCCUGC [salish99_SSNG2_r04_813] (Eterna round: R96, puzzle: Same State NG 2) | 81.9 | 82.7 | 74.8 | – | – | – |
| GGCAAUAUCACAGGAUAUUGGAAAGGAAGUGUACAAGAAGGGUGAUAGUGCCUCAGCAACAUGAGGAUCACCCAUGUACUGAGC [PowerStrip SSNG 1.29] (Eterna round: R96, puzzle: Same State NG 1) | 121 | 43.6 | 113 | – | – | – |
| GUGGUGAAUUAAGGAUAUCGAGUCAAGAUGUUAAACAUGAGGAUCACCCAUGUGGGUUGCGGUAUCGAGAAGGUAAUUUACGGG [salish99_SSNG2_r04_506] (Eterna round: R96, puzzle: Same State NG 2) | 17.3 | 20.1 | 30.3 | – | – | – |
| CGACGCUGUCGAGAGGAUAUGCGGUGAUGGACAUGAGGAUCACCCAUGUUAGCGAUAGCAUUACGGUAGAAGGCUCUACAGCUGU [Soteed Omei mod 5] (puzzle: Same State 2) | – | – | – | 20.4 | 202 | 118 |
| AUAAGUUCGAUGCUCGUCUCUCCGUACUAACAUGAGGAUCACCCAUGUGAUCGGGCAGUAGCCCGAUCAGUAUGGCC [Bizain] (puzzle: Sensor for hsa-mir-208a) | – | – | – | 90.7 | 68.3 | 114 |
| GGCUAGGAUAUCUGCAGGAUCACCGCGGAGAAGGAGCUAAGCUAGGAUAUCCGCAGGAUCACCGCGGAGAAGGAGCAUAAUAUA [pwkr ssNG3 DX 2xF5 +2xFMN.15] (Eterna round: R96, puzzle: Same State NG 3) | 81.5 | 20.3 | 18.1 | – | – | – |
| UCUUGGUUUUUGCUCGUUUUUUGUGUUGAACAUGAGGAUCACCCAUGUAUUGUACGGUCCAGUUUAAUAGUGGUCCG [JMF 31] (puzzle: Sensor for hsa-mir-208a) | – | – | – | 25.8 | 13.4 | 23.8 |
| GUGCUCGUGUGAGGAUAUGCUUCCGUUUCGGCUGCAGAAGGUACUAUUAUACAUGAGGAUCACCCAUGUCUCUUUUGUUCGGUG [salish99_SSNG1_r04_911] (Eterna round: R96, puzzle: Same State NG 1) | 66.9 | 38.2 | 58.8 | – | – | – |
| GGCUAGGAUAUCUGCAGGAUCACCGCGGAGAAGGAGCUAAGCUAGGAUAUCCGCAGGAUCACCGCGGAGAAGGAGCAUCAUCUC [pwkr ssNG3 DX 2xF5 +2xFMN.16] (Eterna round: R96, puzzle: Same State NG 3) | 135 | 123 | 429 | – | – | – |
| AAAAUUUCUGCACAGGAUAUGUAGUGUUUCACAUGAGGAUCACCCAUGUCAAAACCAGAGACUGUACAGAAGGGUGCGGUCGGAC [Onedxequ] (puzzle: Same State 2) | – | – | – | 15.8 | 10.3 | 14.6 |
| UGGCUCAGACGAGGAUAUAUGUGAUCACAUGAGGAUCACCCAUGUCUCGAGCUUCGGCUCGAGACAUAGAAGGCGUCUGAGCCA [SSNG2/3-A2] (Eterna round: R96, puzzle: Same State NG 2) | 118 | 66.3 | 18.5 | – | – | – |
